Positions count from the first letter of the chain named. In names and notes the source's numbering stands. Values belong to the binder of their own block, whether it stands above or below them.
Assays:
Rat serum albumin (RSA) [1] = target: T1, Rat serum albumin (RSA) (rat, UniProt P02770 25-608); assay: ELISA on coated rat albumin, anti-human Fc HRP, A650, one site-total binding fit
T1 construct: Bought protein (Sigma); also called rat albumin
Protocol: (§1) Medisorp plates were coated with albumin protein at 2 μg/ml, 50 μl/well at 4° C. overnight (human, murine, and rat albumin-Sigma, cynomolgus monkey albumin-Abcam). 1× Fish Gelatin (blocking agent, Bethyl Laboratories) was added to albumin-coated wells followed by a 1 hour incubation at RT. Titrations of sdAb fusion proteins (starting at 100 nM, across 1:3 or down 1:4) were added and incubated for 1 hour at RT. Plates were washed 3 times with 0.1% D-PBST, and then anti-human Fc HRP antibody (1:2000 in 0.1% D-PBST, Jackson) was added and incubated for 30 minutes at RT. Plates were washed 3 times with 0.1% D-PBST, and then TMB substrate was added. Absorbance at 650 nm was read on a plate reader (Molecular Devices) and data were plotted using equation one site-total binding (Model: Y=Bmax*X/(Kd+X)+NS*X+Background, GraphPad Prism).

[2] = target: T2, Murine serum albumin (MSA) (mouse, UniProt P07724 25-608); assay: ELISA on coated murine albumin, anti-human Fc HRP, A650, one site-total binding fit
T2 construct: Bought protein (Sigma); also called murine albumin; mouse albumin
Protocol: as §1

[3] = target: T3, Cynomolgus monkey serum albumin (CSA) (cynomolgus monkey, UniProt A2V9Z4 25-608); assay: ELISA on coated cynomolgus monkey albumin, anti-human Fc HRP, A650, one site-total binding fit
T3 construct: Bought protein (Abcam); also called cynomolgus monkey albumin
T3 sequence (A2V9Z4 25-608): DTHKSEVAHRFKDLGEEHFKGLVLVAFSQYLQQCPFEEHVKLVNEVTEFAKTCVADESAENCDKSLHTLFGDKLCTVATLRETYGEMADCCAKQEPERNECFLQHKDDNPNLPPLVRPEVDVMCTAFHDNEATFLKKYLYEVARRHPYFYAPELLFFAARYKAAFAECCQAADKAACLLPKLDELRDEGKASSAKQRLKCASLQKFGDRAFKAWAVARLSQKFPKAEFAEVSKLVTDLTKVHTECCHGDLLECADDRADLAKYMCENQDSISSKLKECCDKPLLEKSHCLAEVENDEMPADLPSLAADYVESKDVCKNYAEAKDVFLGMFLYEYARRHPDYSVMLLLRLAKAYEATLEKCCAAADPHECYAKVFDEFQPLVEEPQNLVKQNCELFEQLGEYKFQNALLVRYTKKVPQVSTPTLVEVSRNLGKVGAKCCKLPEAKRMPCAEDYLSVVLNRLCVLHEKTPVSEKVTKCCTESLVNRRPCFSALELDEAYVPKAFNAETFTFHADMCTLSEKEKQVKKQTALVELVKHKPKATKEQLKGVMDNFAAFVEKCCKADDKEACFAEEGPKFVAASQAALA
Protocol: as §1

[4] = target: T4, Human serum albumin (HSA) (human, UniProt P02768 25-609); assay: ELISA, albumin coated, sdAb fusion titrated, anti-human Fc HRP
T4 construct: also called human albumin; recombinant human albumin
T4 sequence (P02768 25-609): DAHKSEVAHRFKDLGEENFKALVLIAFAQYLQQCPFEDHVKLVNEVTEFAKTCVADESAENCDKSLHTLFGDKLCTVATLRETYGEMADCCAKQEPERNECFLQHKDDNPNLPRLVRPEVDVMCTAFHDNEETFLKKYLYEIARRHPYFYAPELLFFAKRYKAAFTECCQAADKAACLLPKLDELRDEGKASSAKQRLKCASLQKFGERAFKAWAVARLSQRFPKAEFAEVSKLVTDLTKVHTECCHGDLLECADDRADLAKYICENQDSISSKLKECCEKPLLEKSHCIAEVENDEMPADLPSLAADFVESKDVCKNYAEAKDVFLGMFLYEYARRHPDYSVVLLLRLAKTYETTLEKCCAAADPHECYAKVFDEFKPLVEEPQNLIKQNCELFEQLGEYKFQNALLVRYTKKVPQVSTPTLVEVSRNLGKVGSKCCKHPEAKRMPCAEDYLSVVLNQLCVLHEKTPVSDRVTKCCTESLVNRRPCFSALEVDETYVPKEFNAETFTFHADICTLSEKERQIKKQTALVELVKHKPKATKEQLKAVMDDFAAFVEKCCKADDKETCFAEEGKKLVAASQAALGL
Protocol: as §1

Rat serum albumin (RSA) [5] = target: T1, Rat serum albumin (RSA); assay: as above
Protocol: as §1

[6] = target: T2, Murine serum albumin (MSA); assay: as above
Protocol: as §1

[7] = target: T3, Cynomolgus monkey serum albumin (CSA); assay: as above
Protocol: as §1

[8] = target: T4, Human serum albumin (HSA); assay: ELISA on coated human albumin, anti-human Fc HRP, A650, one site-total binding fit
Protocol: as §1

[9] = target: T4, Human serum albumin (HSA); assay: ELISA on coated human albumin, pH 5.5, HRP detection antibody, A450
Protocol: (§2) 96-well ELISA plates were coated with albumin protein in PBS overnight at 4° C., washed with PBS-T and then blocked with 5% milk powder in PBS-T for 1 h at room temperature. Serial dilutions of test articles were prepared in PBS pH 7.4 or a buffer containing 20 mM His, 150 mM NaCl, pH 5.5 and added to the plates. Plates were incubated for 1 h at room temperature. After the incubation cells were washed in the respective buffer and then incubated for 30 min at room temperature with a HRP-conjugated antibody detecting the polypeptides. Plates were washed in their respective buffers and TMB substrate was added and color allowed to develop. TMB substrate was stopped with an equal volume of stop solution (1M H₂SO₄). Absorbance at 450 nm was measured with a 96 well plate reader.

[10] = target: T5, human FcRn extracellular domain (ECD) fused to a transmembrane domain and an intracellular citrine, with … (human); assay: flow cytometry, CHO cells transiently expressing human FcRn ECD-TM-citrine and B2M, pH 6, AF647 detection antibody
T5 construct: also called human FcRn overexpressed on CHO cells; FcRn transfected CHO cells
Protocol: (§3) Binding of anti-FcRn VHH polypeptides to human FcRn at neutral (7.4) or endosomal (6) pH was tested by flow cytometry using a CHO-based overexpression system or isolated human peripheral blood mononuclear cells (PBMC).
(§4) CHO cells were plated in 96-well plates at 50,000 cells per well and resuspended in PBS, pH 7.4 or a buffer containing 20 mM His, 150 mM NaCl, pH 6. Serial dilutions of test articles were prepared at 2× the final concentration in the buffers described above (pH 7.4 or pH 6) and added to the cell suspensions. Plates were incubated for 60 minutes at 4° C. After the incubation cells were washed in the respective buffer and then incubated for 30 minutes at 4° C. with a fluorescently labeled (AF647) antibody detecting the VHH polypeptides. Binding of the detection antibody to FcRn on transfected cells (citrine positive) was measured after a final wash using an iQue Screener (Sartorius).

[11] = target: T5, human FcRn extracellular domain (ECD) …; assay: flow cytometry, CHO cells transiently expressing human FcRn ECD-TM-citrine and B2M, pH 7.4, AF647 detection antibody
Protocol: as §3, §4

[12] = target: T5, human FcRn extracellular domain (ECD) …; assay: as above; remark: listed apart in the source
Protocol: as §3, §4

[13] = target: T6, human FcRn on primary human monocytes (PBMC) (human, UniProt P55899 24-365; P16213 21-119); assay: flow cytometry, fixed and permeabilized human PBMC, gated monocytes, pH 6, AF647 detection antibody
T6 construct: Endogenous FcRn (with endogenous beta-2 microglobulin) in fixed and permeabilized human PBMC; also called FcRn-expressing human monocytes; FcRn on PBMC subpopulations
Protocol: (§5) Isolated human PBMC were plated in 96-well plates at 120,000 cells per well and washed with PBS, pH 7.4. Cells were stained with Zombie Aqua to exclude dead cells and with specific fluorescently labeled antibodies against surface lineage markers (CD14, CD16, CD3, CD56, CD19 and HLA-DR) to allow gating on different PBMC subpopulations. After the surface marker staining, cells were fixed and permeabilized using a Foxp3/Transcription Factor Fixation/Permeabilization kit (eBioscience™) according to the manufacturer's recommended protocol. Cells were then resuspended in the buffers described above to generate pH 7.4 or pH 6 conditions and test article staining was carried out as described for CHO cells. After the final wash, binding to FcRn on PBMC subpopulations (Monocytes, B cells or T cells) was measured on a Novocyte-Quanteon Flow Cytometer (Agilent).

[14] = target: T4, Human serum albumin (HSA); assay: ELISA on coated human albumin, pH 5.5, HRP detection antibody, A450; remark: listed apart in the source
Protocol: as §2

[15] = target: T4, Human serum albumin (HSA); assay: ELISA on coated human albumin, pH 7.4, HRP detection antibody, A450
Protocol: as §2

[16] = target: T5, human FcRn extracellular domain (ECD) …; assay: flow cytometry, CHO cells transiently expressing human FcRn ECD-TM-citrine and B2M, pH 6, AF647 detection antibody; remark: listed apart in the source
Protocol: as §3, §4

[17] = target: T6, human FcRn on primary human monocytes …; assay: flow cytometry, fixed and permeabilized human PBMC, gated monocytes, pH 7.4, AF647 detection antibody
Protocol: as §5

[18] = target: T7, human FcRn/B2m heterodimer protein (human, UniProt P55899 24-297; P61769 21-119, limits assumed); assay: ELISA on coated human FcRn/B2m heterodimer, pH 7.4, HRP detection antibody, A450
T7 construct: also called FcRn (ELISA)
Protocol: 96-well ELISA plates were coated with human FcRn/B2m heterodimer protein in PBS overnight at 4° C., washed with PBST and then blocked with 3% BSA in PBST for 1 h at RT. Serial dilutions of test articles were prepared in PBST pH 7.4 and added to the plates. Plates were incubated for 1 h at room temperature. After the incubation cells were washed in the PBST and then incubated for 1 h at room temperature with a horse radish peroxidase (HRP)-conjugated antibody detecting the polypeptides. Plates were washed with PBS-T followed by addition of TMB substrate and color allowed to develop. TMB substrate was stopped with an equal volume of stop solution (1M H₂SO₄). Absorbance at 450 nm was measured with a 96 well plate reader (Emax, Molecular Devices). All data were plotted and analyzed using GraphPad Prism analysis software.

[19] = target: T5, human FcRn extracellular domain (ECD) …; assay: flow cytometry, HEK 293 cells transiently expressing human FcRn ECD-TM-citrine and B2M, pH 6; blocked ligand: biotinylated human IgG at 1 µM, detected with streptavidin-AF647
Protocol: 50,000 transiently transfected HEK 293 cells were plated in 96-well plates and resuspended in 20 mM His, 150 mM NaCl, pH 6. Serial dilutions of test articles were prepared at 2× the final concentration in the buffer described above and added to the cell suspensions. Plates were incubated for 60 minutes at 4° C. […] Cells were then washed in the buffer described above and subsequently incubated for 30 minutes at 4° C. with a fluorescently labeled (AF647) streptavidin to detect IgG binding to FcRn. Binding of streptavidin to cells expressing FcRn (citrine positive) was measured after a final wash using an iQue Screener (Sartorius). The data were plotted and analyzed using GraphPad Prism analysis software.

[20] = target: T2, Murine serum albumin (MSA); assay: ELISA on coated murine albumin, anti-human Fc HRP, A650, one site-total binding fit; remark: listed apart in the source
Protocol: as §1

[21] = target: T3, Cynomolgus monkey serum albumin (CSA); assay: ELISA on coated cynomolgus monkey albumin, anti-human Fc HRP, A650, one site-total binding fit; remark: listed apart in the source
Protocol: as §1

Rat serum albumin (RSA) [22] = target: T1, Rat serum albumin (RSA); assay: ELISA on coated rat albumin, anti-human Fc HRP, A650, one site-total binding fit; remark: listed apart in the source
Protocol: as §1

[23] = target: T8, Mouse Fc-tagged human albumin domain III (human, UniProt P02768 405-609, limits assumed); assay: biolayer interferometry, mouse Fc-tagged human albumin domain III (10 ug/ml) on anti-mouse IgG Fc biosensor, pH 5
T8 construct: also called albumin domain 3 (mouse Fc tagged); albumin domain 3; not shown: mouse Fc tag
T8 sequence (P02768 405-609 limits assumed): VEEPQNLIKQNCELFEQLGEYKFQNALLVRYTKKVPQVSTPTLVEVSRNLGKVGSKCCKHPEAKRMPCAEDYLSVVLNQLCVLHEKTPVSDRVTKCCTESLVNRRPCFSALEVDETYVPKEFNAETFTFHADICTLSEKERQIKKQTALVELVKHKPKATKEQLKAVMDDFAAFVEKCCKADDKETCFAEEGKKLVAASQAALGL

[24] = target: T4, Human serum albumin (HSA); assay: ELISA on coated human albumin, anti-human Fc HRP, A650, one site-total binding fit; remark: listed apart in the source
Protocol: as §1

T1 sequence (P02770 25-608): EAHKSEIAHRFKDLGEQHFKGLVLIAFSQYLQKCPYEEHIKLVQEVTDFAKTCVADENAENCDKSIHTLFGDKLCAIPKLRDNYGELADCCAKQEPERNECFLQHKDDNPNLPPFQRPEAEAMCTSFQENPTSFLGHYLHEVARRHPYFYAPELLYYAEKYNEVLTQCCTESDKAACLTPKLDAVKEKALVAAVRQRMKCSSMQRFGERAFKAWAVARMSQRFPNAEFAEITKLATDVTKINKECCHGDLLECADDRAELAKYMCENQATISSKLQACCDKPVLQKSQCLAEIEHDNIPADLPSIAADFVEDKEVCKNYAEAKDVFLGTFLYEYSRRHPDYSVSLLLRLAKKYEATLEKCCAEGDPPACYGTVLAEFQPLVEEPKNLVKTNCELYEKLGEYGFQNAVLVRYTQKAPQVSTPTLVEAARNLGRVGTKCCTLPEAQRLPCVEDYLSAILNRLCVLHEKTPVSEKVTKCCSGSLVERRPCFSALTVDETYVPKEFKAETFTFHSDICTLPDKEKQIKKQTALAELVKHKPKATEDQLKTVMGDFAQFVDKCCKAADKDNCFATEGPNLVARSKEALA

B1: cx5009 (hz4A01v51-NNT-hFc) (Fc fusion)
chain: EVQLVESGGGEVQPGGSLRLSCAASGFTFSTSGMVWVRQAPGKGLEWVSTISDDARITVYAESVKGRFTISRDNAKNTVYLQMNSLRAEDTAVYYCATYRAGSRIGSYEDYYRGQGTLVTVKPGGGGPSVFLFPPKPKDTLMISRTPEVTCVVVDVSHEDPEVKFNWYVDGVEVHNAKTKPREEQYNSTYRVVSVLTVLHQDWLNGKEYKCKVSNKALPAPIEKTISKAKGQPREPQVYTLPPSRDELTKNQVNLTCLVKGFYPSDIAVEWESNGQPENNYKTTPPVLDSDGSFFLNSTLTVDKSRWQQGNVFSCSVMHEALHNHYTQKSLSLSPGSGGGGSGGGGS
notes: also called humanized hz4A01v51; hx4A01v51
Kd (Rat serum albumin (RSA) [1]): 234 pM | Kd [2]: 207 pM | Kd [3]: 189 pM | Kd [4]: < 300 pM | maximal binding [4]: > 90% | Kd (Rat serum albumin (RSA) [5]): < 300 pM | maximal binding (Rat serum albumin (RSA) [5]): > 90% | Kd [6]: < 300 pM | maximal binding [6]: > 90% | Kd [7]: < 300 pM | maximal binding [7]: > 90% | Kd [8]: 195 pM

B2: cx11558 (B10a.v2.1 VHH x hz4A01v51 VHH) (bispecific antibody)
chain: EVQLLESGGGEVQPGGSLRLSCAASGSIANVDLMAWHRQAPGKQREPIAVINDAGSTYYAESVKGRFTISRDNAKNTLYLQMNSLRAEDTAVYYCNTATWRGGERYADWGQGTLVTVKPGSGGGSEVQLVESGGGEVQPGGSLRLSCAASGFTFSTSGMVWVRQAPGKGLEWVSTISDDARITVYAESVKGRFTISRDNAKNTVYLQMNSLRAEDTAVYYCATYRAGSRIGSYEDYYRGQGTLVTVKPGG
EC50 (read off the curve) [9]: ~60 pM | EC50 (read off the curve) [10]: ~400 pM | EC50 (read off the curve) [11]: ~500 pM | EC50 (read off the curve) [12]: ~500 pM | EC50 (read off the curve) [13]: ~5000 pM | EC50 (read off the curve) [14]: ~60 pM | EC50 (read off the curve) [15]: ~300 pM | EC50 (read off the curve) [16]: ~400 pM | EC50 (read off the curve) [17]: ~4000 pM

B6: cx11385 (B10a.v1 VHH x B10a.v1 VHH x hz4A01v51 VHH) (bispecific antibody)
chain: EVQLLESGGGEVQPGGSLRLSCTASGSIANVDMMAWHRQAPGKQREPIAVINDGGSTSYADSVKGRFTISRDNAKNTLYLQMSSLRAEDTAVYYCNTATWRGGERYADWGQGTLVTVKPGSGGGSEVQLLESGGGEVQPGGSLRLSCTASGSIANVDMMAWHRQAPGKQREPIAVINDGGSTSYADSVKGRFTISRDNAKNTLYLQMSSLRAEDTAVYYCNTATWRGGERYADWGQGTLVTVKPGSGGGSEVQLVESGGGEVQPGGSLRLSCAASGFTFSTSGMVWVRQAPGKGLEWVSTISDDARITVYAESVKGRFTISRDNAKNTVYLQMNSLRAEDTAVYYCATYRAGSRIGSYEDYYRGQGTLVTVKPGG
EC50 (read off the curve) [18]: ~70 pM | IC50 (read off the curve) [19]: ~3000 pM

Next, values leading:

binding result [18]: binds | IC50 (read off the curve) [19]: ~7000 pM
B3: cx11383 (B10a.v1 VHH x hz4A01v51 VHH) (bispecific antibody)
chain: B2 chain with A23T, L33M, A54G, Y58S, E61D, N83S

EC50 (read off the curve) [12]: ~500 pM | EC50 (read off the curve) [15]: ~300 pM | EC50 (read off the curve) [16]: ~600 pM
B4: cx12032 (B10a.v2.1 VHH x hz4A01v51 VHH) (bispecific antibody)
chain: EVQLLESGGGEVQPGGSLRLSCAASGSIANVDLMAWHRQAPGKQREPIAVINDAGSTYYAESVKGRFTISRDNAKNTLYLQMNSLRAEDTAVYYCNTATWRGGERYADWGQGTLVTVKPEVQLVESGGGEVQPGGSLRLSCAASGFTFSTSGMVWVRQAPGKGLEWVSTISDDARITVYAESVKGRFTISRDNAKNTVYLQMNSLRAEDTAVYYCATYRAGSRIGSYEDYYRGQGTLVTVKPGG

Kd (Rat serum albumin (RSA) [1]): 182 pM | Kd [2]: 193 pM | Bmax [20]: 1.26 A650 | Kd [20]: 114 pM | Bmax [21]: 1.27 A650 | Kd [21]: 113 pM | Bmax (Rat serum albumin (RSA) [22]): 1.24 A650 | Kd (Rat serum albumin (RSA) [22]): 144 pM | Kd [3]: 162 pM | binding result [23]: no binding | Bmax [24]: 1.34 A650 | Kd [24]: 105 pM | Kd [8]: 170 pM
B5: 4A01-NNT-hFc (Fc fusion)
chain: QVQLQESGGGLVQPGGSLRLSCAASGFAFSTSGMVWVRQATGKGLEWVSTISDDSRIIRYADSVNGRFTISRDNAENTLYLLMNSLKPEDTAVYYCATYRAGSRIGSYEDYYRGQGTQVTVSSGGPSVFLFPPKPKDTLMISRTPEVTCVVVDVSHEDPEVKFNWYVDGVEVHNAKTKPREEQYNSTYRVVSVLTVLHQDWLNGKEYKCKVSNKALPAPIEKTISKAKGQPREPQVYTLPPSRDELTKNQVNLTCLVKGFYPSDIAVEWESNGQPENNYKTTPPVLDSDGSFFLNSTLTVDKSRWQQGNVFSCSVMHEALHNHYTQKSLSLSPG
notes: Monomeric sdAb-Fc fusion (Fc S364N, Y407N, K409T = NNT); also called 1m4A01; anti-albumin sdAb 4A01

Source: patent publication US20250353911A1 (INHIBRX BIOSCIENCES, published 2025)
